Experimental data reported in patent JP2017086068A (dated 2017).

Target: HA2融合ペプチドFGAIAG (Influenza A virus (A/VN/1194/04))
Assay: Pepscan peptide mapping, linear and cyclised peptides of HA A/VN/1194/04

B1: FI6変異体2 (antibody, V domains shown)
VH: QVQLVQSGGGVVQPGRSLRLSCVASGFTFSTYAMHWVRQAPGRGLEWVAVISYDGNYKYYADSVKGRFSISRDNSNNTLHLEMNTLRTEDTALYYCAKDSQLRSLLYFEWLSQGYFDPWGQGTLVTVTS
VL: DIQMTQSPDSLAVSLGARATINCKSSQSVTFNYKNYLAWYQQKPGQPPKVLIYWASARESGVPDRFSGSGSGTDFTLTISSLQAEDVAVYYCQQHYRTPPTFGQGTKVEIK
**Q.** Does B1 bind?
**A.** binds
